Experimental data published in patent US20150232510A1.

molecular target: Recombinant Human DPPIV/CD26 (R&D Systems, Inc.) (human) (UniProt P27487); test: cell-based or functional assay
Chain of UniProt P27487 (P27487 29-766 limits assumed): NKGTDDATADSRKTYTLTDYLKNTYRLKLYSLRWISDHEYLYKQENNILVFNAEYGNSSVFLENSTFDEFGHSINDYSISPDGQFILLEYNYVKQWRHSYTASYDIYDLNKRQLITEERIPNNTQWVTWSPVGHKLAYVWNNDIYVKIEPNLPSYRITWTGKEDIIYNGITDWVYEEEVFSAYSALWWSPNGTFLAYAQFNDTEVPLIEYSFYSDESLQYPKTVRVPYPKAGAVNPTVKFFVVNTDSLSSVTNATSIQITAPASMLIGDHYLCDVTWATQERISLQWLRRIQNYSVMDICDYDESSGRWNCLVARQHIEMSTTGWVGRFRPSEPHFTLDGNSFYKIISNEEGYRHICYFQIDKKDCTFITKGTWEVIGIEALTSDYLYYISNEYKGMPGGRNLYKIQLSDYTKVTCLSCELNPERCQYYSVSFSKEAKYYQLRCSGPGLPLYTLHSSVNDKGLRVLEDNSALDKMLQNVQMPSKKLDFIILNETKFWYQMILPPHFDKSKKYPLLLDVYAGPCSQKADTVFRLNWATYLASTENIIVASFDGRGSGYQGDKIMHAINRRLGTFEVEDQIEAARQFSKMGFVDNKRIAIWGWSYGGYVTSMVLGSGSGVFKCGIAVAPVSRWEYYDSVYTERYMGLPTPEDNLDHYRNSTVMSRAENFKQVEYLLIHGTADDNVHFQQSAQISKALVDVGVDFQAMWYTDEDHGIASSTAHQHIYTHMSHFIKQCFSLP

Row | Substance | DPP-4 inhibiting activity IC50(µg/ml) [µg/mL] | concentration for 50% inhibition of the enzymatic activity (dipeptidyl peptidase-IV inhibiting ability of HPLC Fraction 2) [µg/mL]
1 | Val-Pro-Pro (peptide) | > 2000 | –
2 | Val-Pro-Val (peptide) | 1 | –
3 | Val-Pro-Asn (peptide) | 5.7 | –
4 | LY (peptide) | 486 | –
5 | Val-Pro-Ser (peptide) | 5.17 | –
6 | Val-Pro-Tyr (peptide) | 7.15 | –
7 | Val-Pro-Ala (peptide) | 1.9 | 2
8 | Val-Pro-Gln (peptide) | 2.6 | –
9 | Val-Pro-Gly (peptide) | 3.4 | –
10 | Ile-Pro-Pro (peptide) | 1340 | –
11 | Val-Pro-Lys (peptide) | 10.4 | –

molecular target: Angiotensin Converting Enzyme, from rabbit lung (SIGMA) (rabbit) (UniProt P12822); test: cell-based or functional assay
Chain of UniProt P12822 (P12822 34-1310 limits assumed): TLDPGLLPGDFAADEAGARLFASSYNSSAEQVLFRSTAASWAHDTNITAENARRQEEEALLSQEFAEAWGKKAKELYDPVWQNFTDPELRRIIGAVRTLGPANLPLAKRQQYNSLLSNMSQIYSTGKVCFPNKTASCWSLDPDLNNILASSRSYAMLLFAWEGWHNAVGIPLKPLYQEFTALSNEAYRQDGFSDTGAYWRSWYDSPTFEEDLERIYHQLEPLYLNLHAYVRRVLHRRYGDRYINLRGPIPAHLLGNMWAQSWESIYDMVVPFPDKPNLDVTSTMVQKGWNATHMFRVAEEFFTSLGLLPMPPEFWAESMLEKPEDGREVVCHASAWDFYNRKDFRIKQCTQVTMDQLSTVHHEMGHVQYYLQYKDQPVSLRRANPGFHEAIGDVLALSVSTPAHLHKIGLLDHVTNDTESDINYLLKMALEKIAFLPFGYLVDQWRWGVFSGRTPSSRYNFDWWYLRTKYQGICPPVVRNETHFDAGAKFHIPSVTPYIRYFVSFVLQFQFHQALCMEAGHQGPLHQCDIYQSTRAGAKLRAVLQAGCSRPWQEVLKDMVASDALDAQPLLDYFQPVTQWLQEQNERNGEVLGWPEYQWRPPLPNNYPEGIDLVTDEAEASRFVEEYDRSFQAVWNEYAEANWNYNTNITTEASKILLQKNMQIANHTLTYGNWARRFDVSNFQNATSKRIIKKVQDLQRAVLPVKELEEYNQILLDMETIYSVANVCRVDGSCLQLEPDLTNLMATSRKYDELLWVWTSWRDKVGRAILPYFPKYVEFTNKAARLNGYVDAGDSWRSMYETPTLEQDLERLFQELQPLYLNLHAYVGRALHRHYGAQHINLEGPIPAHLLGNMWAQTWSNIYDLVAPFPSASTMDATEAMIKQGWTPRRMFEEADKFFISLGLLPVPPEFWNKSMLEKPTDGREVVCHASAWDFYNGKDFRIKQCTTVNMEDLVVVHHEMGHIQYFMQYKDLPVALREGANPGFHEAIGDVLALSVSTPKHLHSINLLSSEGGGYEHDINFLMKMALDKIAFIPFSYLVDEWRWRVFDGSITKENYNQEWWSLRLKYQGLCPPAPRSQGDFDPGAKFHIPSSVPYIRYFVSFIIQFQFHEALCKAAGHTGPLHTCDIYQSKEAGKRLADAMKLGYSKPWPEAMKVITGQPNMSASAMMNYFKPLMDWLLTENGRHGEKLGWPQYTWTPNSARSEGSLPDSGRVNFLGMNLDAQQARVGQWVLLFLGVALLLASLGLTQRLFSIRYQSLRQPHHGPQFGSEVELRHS

Row | Substance | ACE inhibiting activity, 50% inhibition concentration [µg/mL]
12 | Val-Pro-Ala (peptide) | 24.8
13 | Val-Pro-Lys (peptide) | 132
